Measured values reported in the supplement of paper PMC10724198.
± gives the standard deviation of the averaged measurements.

The sequences below were run on Saccharomyces cerevisiae (assay: protein stability index of tFT-peptide fusion (C-terminal peptide) (PSI (0-1 scale)); higher = more stable (slower turnover)). Conditions: genetic background: wild type; temperature: 30 C.
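Further: PSI is a weighted mean of sequencing reads over stability bins, variants kept only with over 10 reads, mCherry proximal and sfGFP distal, peptide attached via GGGS linker.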

Going from PAAPLPPTPPPP to LHHLASPSPPTP, the protein stability index rises from 0.708 ± 0.0082 to 0.797 ± 0.015.

GRGGGGGRDREA and TTRLARNEQVKR are within error of each other in protein stability index: 0.703 ± 0.076 for the first, 0.62 ± 0.1 for the second.

APSSPPPPTLPP and SDKGKSSVSGSN are within error of each other in protein stability index: 0.716 ± 0.17 for the first, 0.678 ± 0.012 for the second.

First: KQKRQLPRKNET
Second: LNSCLIVDEPDI
The protein stability index of the first is lower: 0.639 ± 0.0092 for the first, 0.8026 ± 0.0048 for the second.

Going from RKKDHKSIIQII to WCPVHGSGGAPL, the protein stability index rises from 0.57779 ± 0.00015 to 0.674 ± 0.026.

ARSAGITSPSKD and RERPHSDYLACH are within error of each other in protein stability index: 0.788 ± 0.12 for the first, 0.691 ± 0.026 for the second.

GLARSICRNYGL and SGEVFEDLRAPE are within error of each other in protein stability index: 0.706 ± 0.014 for the first, 0.743 ± 0.038 for the second.

PRLPTSPVPHPP and LLCPSPPSDIPP are within error of each other in protein stability index: 0.6473 ± 0.0033 for the first, 0.661 ± 0.016 for the second.

KDTHNEKKGTPS and PPAPHPHLPSSY are within error of each other in protein stability index: 0.686 ± 0.082 for the first, 0.685 ± 0.072 for the second.

Going from DWVDFFQSVIWI to LHSRKSDFSVIA, the protein stability index falls from 0.761 ± 0.0079 to 0.656 ± 0.046.

YKNRKYNGKIRI and SSLTCLLFPPGY are within error of each other in protein stability index: 0.585 ± 0.18 for the first, 0.695 ± 0.012 for the second.

Going from GVAGRRRRAGAW to PRLFPSSPLPFN, the protein stability index rises from 0.7294 ± 0.002 to 0.822 ± 0.018.

CQQCLATYNKGP and GVCGGGGGWGVA are within error of each other in protein stability index: 0.708 ± 0.16 for the first, 0.6826 ± 0.0019 for the second.

First: PPQRNFPARPTP
Second: CLGPGVLVGCVC
The protein stability index of the first is higher: 0.6988 ± 0.0034 for the first, 0.402 ± 0.16 for the second.

CPDSFARSAVLS and TPIAGGAKLFHV are within error of each other in protein stability index: 0.673 ± 0.074 for the first, 0.646 ± 0.058 for the second.

VRGLYEHSLGSR and RKQQGDNHKGRG are within error of each other in protein stability index: 0.741 ± 0.066 for the first, 0.706 ± 0.14 for the second.

First: SSPLYSLLVLFQ
Second: WGYEGGWGGHGT
The protein stability index of the first is lower: 0.54 ± 0.037 for the first, 0.659 ± 0.025 for the second.

MEAAGVGRVVWR and PPPPPGLAPPSP are within error of each other in protein stability index: 0.632 ± 0.056 for the first, 0.681 ± 0.011 for the second.

SPHPPPSSPPPP and SPPTRAPISSIS are within error of each other in protein stability index: 0.674 ± 0.097 for the first, 0.733 ± 0.0087 for the second.

FSGGGRGLVGEV and KKKGDKVGTKEQ are within error of each other in protein stability index: 0.7 ± 0.039 for the first, 0.657 ± 0.048 for the second.

First: FPPYHTSSGFDA
Second: ESKKYQQDNITR
The protein stability index of the first is higher: 0.733 ± 0.066 for the first, 0.608 ± 0.039 for the second.

Compared with WAGGFGGLGRDT, LSFLYCSDNKVA is lower in protein stability index: 0.744 ± 0.0089 for the first, 0.6562 ± 0.006 for the second.

First: PPRPPRPSPPPP
Second: KKKDKKVKRRKV
The protein stability index of the first is lower: 0.72293 ± 8.1e-05 for the first, 0.769 ± 0.031 for the second.

IRQRSRGGLSSD and HYLYSLLVLPPL are within error of each other in protein stability index: 0.684 ± 0.021 for the first, 0.658 ± 0.046 for the second.

PPPILFTEPPLA and NLCRLGHTAGVL are within error of each other in protein stability index: 0.738 ± 0.0049 for the first, 0.753 ± 0.086 for the second.

KQLKKKKQIRRK and SLLPLHPPLTLP are within error of each other in protein stability index: 0.728 ± 0.13 for the first, 0.674 ± 0.19 for the second.

GGGGGGLLDVGV and PLSDDPRRPLST are within error of each other in protein stability index: 0.685 ± 0.027 for the first, 0.688 ± 0.069 for the second.

Going from VERRTDRNLGSV to KPPPSISLSWLE, the protein stability index rises from 0.645 ± 0.007 to 0.716 ± 0.0024.

Going from RGGGGGGGAAGS to MGGRDNLVQKEW, the protein stability index rises from 0.657 ± 0.037 to 0.804 ± 0.091.

HGLDPRRGPSGA and GEGRRQIKEEHV are the same in protein stability index: 0.68426 ± 0.00044 for the first, 0.6842 ± 0.0042 for the second.

SESKCRPKVSQP and SFSSHPPFAPSF are within error of each other in protein stability index: 0.689 ± 0.065 for the first, 0.745 ± 0.018 for the second.

Compared with PLLLAPPPPSPP, AWGPGRGGGGDA is lower in protein stability index: 0.739 ± 0.036 for the first, 0.677 ± 0.01 for the second.

TSPQHPWPPAPL and RPCPGPLPPPPP are within error of each other in protein stability index: 0.694 ± 0.06 for the first, 0.662 ± 0.013 for the second.

PPPPPPPPTTVL and LSQISTQRPNQV are within error of each other in protein stability index: 0.709 ± 0.023 for the first, 0.694 ± 0.06 for the second.

PPSPRPPPSPPP and SPAPPPPVTPPL are within error of each other in protein stability index: 0.7 ± 0.039 for the first, 0.662 ± 0.013 for the second.

Compared with ISWCPRHPFSSD, CFPSFVTFSSLF is higher in protein stability index: 0.752 ± 0.014 for the first, 0.7722 ± 0.0041 for the second.

FPTSPPLIALLD showed a protein stability index of 0.6692 ± 0.0029.
